Values of other authors, collected in PMC12208613.
pKd: −log10 of the molar value. Values joined by “and” are separate entries in the source; they are usually repeats but may differ in a detail not shown here. Identical values can stand only once.

Target: CD7 (Homo sapiens) (UniProt P09564)
Sequence (P09564 26-180): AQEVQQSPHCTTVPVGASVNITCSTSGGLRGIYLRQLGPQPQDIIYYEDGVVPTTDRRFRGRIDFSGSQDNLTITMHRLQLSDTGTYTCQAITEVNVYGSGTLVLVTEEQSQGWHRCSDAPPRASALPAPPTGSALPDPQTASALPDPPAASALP

Chain of K12 (Q8WVN6 29-145): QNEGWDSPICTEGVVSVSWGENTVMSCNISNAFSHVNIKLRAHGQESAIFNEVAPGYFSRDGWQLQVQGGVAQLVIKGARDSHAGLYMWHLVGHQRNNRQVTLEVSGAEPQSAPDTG

pKd: 8.00 and 7.42
Substance: K12 (from UniProt Q8WVN6)
